These results are taken from PMC9716016.

Substrate in this series: N
In words: cells, lysate or membranes. As to conditions: labelled compound; (15NH4)2SO4 (60% 15N), 10 min; N-starved 3 d; qko background subtracted; whole-root uptake.

B1: ScAMT2;1 (Saccharum hybrid cultivar SP80-3280) (protein)
chain: MAASGGAYAAQLPAVPEWLNKGDNAWQLTAATLVGIQSMPGLVVLYGSIVKKKWAVNSAFMALYAYASSLLVWVLVGFRMAFGERLLPFWGKAGVALSQGYLVRRASLSATAHGDTPRTEPLYPEATLVLFQFEFAAITLVLLAGSVLGRMNIKAWMAFTPLWLLFSYTVGAFSLWGGGFLYHWGVIDYSGGYVIHLSSGVAGFTAAYWVGPRLKSDRERFSPNNILLMIAGGGLLWMGWAGFNGGAPYAANIAASVAVLNTNVSAATSLLTWTCLDVIFFNKPSVIGAVQGMMTGLVCITPGAGLVQTWAAVIMGVFAGSVPWFTMMILHKKSALLMKVDDTLAVFHTHAVAGLLGGVLTGLLATPELLEIESPVPGLRGAFYGGGAQQVGKQLAGAAFVVAWNVAVTSLILFAIGLLVPLRMPDDQLMIGDDAAHGEEAYALWGDGEKFDATRHDLAARVGGGGMMDREGSADQRMSGMGARGVTIQL
For the protein B1, the Michaelis constant (Km) was determined as 90.17 µM.

The Km is the concentration of substrate that gives half-maximal velocity.
